± gives the standard error. For some of these results: Fewer inactive variants are shown than the library holds.
B1: glmS ribozyme (parent)
chain: AUAAAAGCGCCAGAACUACAGAAAUGUAGUUGACGAGGAGGAGGUUUAUCGAAUUUUCGGCGGAUGCCUCCAAA

Legend:
Details in all cases: with glucosamine-6-phosphate
glucosamine-6-phosphate [1] = variants of: B1; test: kcat; higher = faster cleavage; RNA array
Method in brief: (§1)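 The measurements used barcoded ribozyme variants on sequenced MiSeq chips, transcribed in situ by E. coli RNA polymerase and tracked at 37 °C with a hybridised Cy3 probe. Glucosamine-6-phosphate, 40 μM to 10 mM in HEPES/KCl/Mg(OAc)2 buffer, was flowed in while tiles were imaged over ~14 h. Baseline-normalised signals, also normalised to non-cleaving reference variants, gave per-tile medians that were fit to one- or two-exponential decays for kobs. kcat and KM resulted from weighted Michaelis–Menten fits across concentrations.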

glucosamine-6-phosphate [2] = variants of: B1; test: KM; higher = weaker cofactor use; RNA array
Method in brief: as §1

glucosamine-6-phosphate [3] = variants of: B1; test: self-cleavage kobs at 160 uM GlcN6P; higher = faster cleavage; RNA array
Method in brief: as §1

glucosamine-6-phosphate [4] = variants of: B1; test: self-cleavage kobs at 640 uM GlcN6P; higher = faster cleavage; RNA array
Method in brief: as §1

glucosamine-6-phosphate [5] = variants of: B1; test: self-cleavage kobs at 2500 uM GlcN6P; higher = faster cleavage; RNA array
Method in brief: as §1

glucosamine-6-phosphate [6] = variants of: B1; test: self-cleavage kobs at 10000 uM GlcN6P; higher = faster cleavage; RNA array
Method in brief: as §1

glucosamine-6-phosphate [7] = variants of: B1; test: self-cleavage kobs at 40 uM GlcN6P; higher = faster cleavage; RNA array
Method in brief: as §1

Row | Variant | kcat (glucosamine-6-phosphate [1]) | KM (glucosamine-6-phosphate [2]) | self-cleavage kobs at 160 uM GlcN6P (glucosamine-6-phosphate [3]) | self-cleavage kobs at 640 uM GlcN6P (glucosamine-6-phosphate [4]) | self-cleavage kobs at 2500 uM GlcN6P (glucosamine-6-phosphate [5]) | self-cleavage kobs at 10000 uM GlcN6P (glucosamine-6-phosphate [6]) | self-cleavage kobs at 40 uM GlcN6P (glucosamine-6-phosphate [7])
1 | A12U U57A | 0.00082 ± 0.00011 s⁻¹ | 4040 ± 880 µM | 4.56e-05 ± 1.7e-05 s⁻¹ | 0.000113 ± 2e-05 s⁻¹ | 0.000287 ± 5e-05 s⁻¹ | 0.000604 ± 8.4e-05 s⁻¹ | –
2 | A6G G66A | 0.000421 ± 2.1e-05 s⁻¹ | 2650 ± 210 µM | – | 8.05e-05 ± 1.4e-05 s⁻¹ | 0.000217 ± 5.1e-05 s⁻¹ | 0.000325 ± 7.5e-05 s⁻¹ | –
3 | U46A A64G | 0.00469 ± 0.0011 s⁻¹ | 2700 ± 990 µM | – | 0.000754 ± 0.00015 s⁻¹ | 0.00242 ± 0.00047 s⁻¹ | 0.00373 ± 0.00065 s⁻¹ | 0.000102 ± 2.3e-05 s⁻¹
4 | U47G C70A | 0.000101 ± 9.5e-06 s⁻¹ | – | 0.000107 ± 1.5e-05 s⁻¹ | 9.99e-05 ± 1.3e-05 s⁻¹ | 0.000111 ± 1.3e-05 s⁻¹ | 8.94e-05 ± 8.5e-06 s⁻¹ | 3.74e-05 ± 1.6e-05 s⁻¹
5 | G13A G66U | 1.72e-05 ± 6.7e-06 s⁻¹ | – | – | – | – | – | < 1e-05 s⁻¹
6 | C16A G59A | 1.02e-05 ± 3.6e-06 s⁻¹ | – | – | – | – | – | –
7 | U56G C68A | 2.79e-05 ± 2.6e-06 s⁻¹ | – | – | – | 2.72e-05 ± 1.3e-05 s⁻¹ | – | –
8 | G62C C70U | < 1e-05 s⁻¹ | – | < 1e-05 s⁻¹ | < 1e-05 s⁻¹ | – | < 1e-05 s⁻¹ | < 1e-05 s⁻¹
9 | C11A C50A | 1.11e-05 ± 3.1e-06 s⁻¹ | – | – | – | – | – | –
10 | A14C A53G C58A C70G | 3.76e-05 ± 1.2e-05 s⁻¹ | – | 5.16e-05 ± 2e-05 s⁻¹ | – | – | – | –
11 | U46C U65G | 0.000138 ± 2.3e-05 s⁻¹ | – | – | 2.77e-05 ± 1.3e-05 s⁻¹ | 0.000117 ± 2.4e-05 s⁻¹ | 0.000113 ± 1.5e-05 s⁻¹ | –
12 | A12G G66U | 0.000245 ± 7.9e-05 s⁻¹ | – | – | – | 3.43e-05 ± 7.2e-06 s⁻¹ | 9.94e-05 ± 9.7e-06 s⁻¹ | –
13 | A12U C67U | 0.0497 ± 0.018 s⁻¹ | 2250 ± 970 µM | – | 0.0142 ± 0.0033 s⁻¹ | 0.0421 ± 0.012 s⁻¹ | 0.0378 ± 0.0074 s⁻¹ | 0.000918 ± 0.0001 s⁻¹
14 | A53G G60A | 2.61e-05 ± 9.4e-06 s⁻¹ | – | – | – | 3.68e-05 ± 1e-05 s⁻¹ | 1.88e-05 ± 8.7e-06 s⁻¹ | –
15 | U49G C50G | < 1e-05 s⁻¹ | – | – | < 1e-05 s⁻¹ | – | – | –
16 | G13U G51A | < 1e-05 s⁻¹ | – | – | < 1e-05 s⁻¹ | < 1e-05 s⁻¹ | < 1e-05 s⁻¹ | –
17 | A39C C68U | 0.000495 ± 6.5e-05 s⁻¹ | 1180 ± 300 µM | 6.25e-05 ± 1.3e-05 s⁻¹ | 0.000159 ± 1.7e-05 s⁻¹ | 0.000367 ± 5.1e-05 s⁻¹ | 0.000445 ± 4.9e-05 s⁻¹ | 2.73e-05 ± 7e-06 s⁻¹
18 | U45A C58G | 0.000316 ± 8.7e-05 s⁻¹ | – | – | – | 0.000129 ± 3.2e-05 s⁻¹ | 0.000222 ± 4.9e-05 s⁻¹ | –

Row | Variant | kcat (glucosamine-6-phosphate [1]) | KM (glucosamine-6-phosphate [2]) | self-cleavage kobs at 160 uM GlcN6P (glucosamine-6-phosphate [3]) | self-cleavage kobs at 640 uM GlcN6P (glucosamine-6-phosphate [4]) | self-cleavage kobs at 2500 uM GlcN6P (glucosamine-6-phosphate [5]) | self-cleavage kobs at 10000 uM GlcN6P (glucosamine-6-phosphate [6]) | self-cleavage kobs at 40 uM GlcN6P (glucosamine-6-phosphate [7])
19 | U65G C67G | 0.00141 ± 6.7e-05 s⁻¹ | 1630 ± 120 µM | 0.00012 ± 1.6e-05 s⁻¹ | 0.000419 ± 4.6e-05 s⁻¹ | 0.00082 ± 0.00011 s⁻¹ | 0.00122 ± 0.00014 s⁻¹ | 3.46e-05 ± 6.7e-06 s⁻¹
20 | A14U A15U | 0.00245 ± 0.00036 s⁻¹ | 2240 ± 500 µM | 0.000141 ± 1.6e-05 s⁻¹ | 0.000602 ± 7.4e-05 s⁻¹ | 0.00125 ± 0.00014 s⁻¹ | 0.00202 ± 0.00018 s⁻¹ | 5.71e-05 ± 7.8e-06 s⁻¹
21 | U47C C50A | 3.31e-05 ± 5.7e-06 s⁻¹ | 3090 ± 1500 µM | – | – | – | – | –
22 | U57G G59U U65G C68U | 1.85e-05 ± 4.8e-06 s⁻¹ | – | – | – | – | – | –
23 | A14G G35C | < 1e-05 s⁻¹ | – | < 1e-05 s⁻¹ | < 1e-05 s⁻¹ | < 1e-05 s⁻¹ | – | < 1e-05 s⁻¹
24 | G29C G32A | 0.00108 ± 0.00019 s⁻¹ | 1960 ± 740 µM | – | 0.000251 ± 8.5e-05 s⁻¹ | 0.000762 ± 0.00038 s⁻¹ | 0.0009 ± 0.00015 s⁻¹ | 3.72e-05 ± 1.5e-05 s⁻¹
25 | G40C A42G | 0.00319 ± 0.00048 s⁻¹ | 1060 ± 250 µM | 0.000438 ± 0.00016 s⁻¹ | 0.000898 ± 0.00025 s⁻¹ | 0.0025 ± 0.0006 s⁻¹ | 0.00299 ± 0.00053 s⁻¹ | 0.000131 ± 2.4e-05 s⁻¹
26 | U30G A36G C71G | 1.69e-05 ± 3.9e-06 s⁻¹ | – | – | – | < 1e-05 s⁻¹ | < 1e-05 s⁻¹ | < 1e-05 s⁻¹
27 | U30G | 0.0156 ± 0.0046 s⁻¹ | 2400 ± 840 µM | 0.000809 ± 3e-05 s⁻¹ | 0.00344 ± 0.00013 s⁻¹ | 0.00622 ± 0.00028 s⁻¹ | 0.0157 ± 0.00058 s⁻¹ | 0.000284 ± 5.6e-06 s⁻¹
28 | U46C G66A | 0.000975 ± 0.00019 s⁻¹ | 799 ± 250 µM | – | 0.000364 ± 9.2e-05 s⁻¹ | 0.000662 ± 0.00023 s⁻¹ | 0.00107 ± 0.00025 s⁻¹ | 5.14e-05 ± 1e-05 s⁻¹
29 | C10A A42C | < 1e-05 s⁻¹ | 2410 ± 820 µM | < 1e-05 s⁻¹ | < 1e-05 s⁻¹ | – | – | < 1e-05 s⁻¹
30 | C16G G51C | < 1e-05 s⁻¹ | – | – | – | – | – | < 1e-05 s⁻¹
31 | A12C A53G | 0.0568 ± 0.027 s⁻¹ | – | 0.00162 ± 0.00033 s⁻¹ | 0.00569 ± 0.00072 s⁻¹ | 0.0149 ± 0.0025 s⁻¹ | 0.0471 ± 0.0076 s⁻¹ | 0.000585 ± 7.2e-05 s⁻¹
32 | A33U U65A | 3.37e-05 ± 1.5e-06 s⁻¹ | – | < 1e-05 s⁻¹ | < 1e-05 s⁻¹ | – | – | < 1e-05 s⁻¹
33 | A14G C70U | 0.0485 ± 0.02 s⁻¹ | 1020 ± 470 µM | 0.00502 ± 0.002 s⁻¹ | 0.0183 ± 0.0066 s⁻¹ | – | – | 0.00188 ± 0.00021 s⁻¹
34 | A15C U55G C70A | 4.71e-05 ± 9.2e-06 s⁻¹ | – | – | 5.4e-05 ± 1.4e-05 s⁻¹ | 4.46e-05 ± 1.3e-05 s⁻¹ | 3.54e-05 ± 1.7e-05 s⁻¹ | –
35 | C10A U30A C68U | 7.99e-05 ± 2.3e-05 s⁻¹ | – | 8.08e-05 ± 2.5e-05 s⁻¹ | – | – | – | –
